The values that follow come from publication PMC3539332.

The experiment concerns the target Arfrp1-His (UniProt Q13795). Nature of the experiment: liposome flotation; liposomes incubated with Arfrp1-His (1.5 μg) and 100 μM GDP or GTPγS, with or without 1 μg MBP-Vangl2 cytosolic domain, in HKM buffer at room temperature for 45 min, then 2 μg purified AP-1 for 1 hr; sucrose flotation; γ1-adaptin in the top fraction by immunoblot, normalised to lipid.
UniProt Q13795, sequence (Q13795 whole entry, the tested form may be a part): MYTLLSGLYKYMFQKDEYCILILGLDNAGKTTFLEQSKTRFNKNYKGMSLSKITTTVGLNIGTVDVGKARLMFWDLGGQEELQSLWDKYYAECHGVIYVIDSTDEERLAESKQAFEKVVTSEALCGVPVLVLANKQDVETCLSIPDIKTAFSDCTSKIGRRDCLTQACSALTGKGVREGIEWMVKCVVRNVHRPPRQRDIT

The substance “purified AP-1 complex (from UniProt Q2KJ81 1-423)” came in with a fold change of membrane recruitment of AP-1 with both Vangl2 cytosolic domain and Arfrp1-GTPγS of 3 fold.
